The results in this text go back to US20120087858A1 (AbbVie / Abbott, published 2012).

Experiment [1] deals with T1, Recombinant Human β-NGF (human, UniProt P01138 122-241). Nature of the experiment: cell-based or functional assay.
Experiment [2] concerns the target T2, Recombinant Human TNF-α/TNFSF1A (human, UniProt P01375 77-233). Nature of the experiment: cell-based or functional assay.
Experiment [3] addresses T2, Recombinant Human TNF-α/TNFSF1A. Nature of the experiment: Biacore SPR. Here is the method: (§1) The BIACORE assay (Biacore, Inc, Piscataway, N.J.) determines the affinity of antibodies or DVD-Ig with kinetic measurements of on-rate and off-rate constants. Binding of antibodies or DVD-Ig to a target antigen (for example, a purified recombinant target antigen) is determined by surface plasmon resonance-based measurements with a Biacore® 1000 or 3000 instrument (Biacore® AB, Uppsala, Sweden) using running HBS-EP (10 mM HEPES [pH 7.4], 150 mM NaCl, 3 mM EDTA, and 0.005% surfactant P20) at 25° C. All chemicals are obtained from Biacore® AB (Uppsala, Sweden) or otherwise from a different source as described in the text. For example, approximately 5000 RU of goat anti-mouse IgG, (Fcγ), fragment specific polyclonal antibody (Pierce Biotechnology Inc, Rockford, Ill.) diluted in 10 mM sodium acetate (pH 4.5) is directly immobilized across a CMS research grade biosensor chip using a standard amine coupling kit according to manufacturer's instructions and procedures at 25 μg/ml. Unreacted moieties on the biosensor surface are blocked with ethanolamine. Modified carboxymethyl dextran surface in flowcell 2 and 4 is used as a reaction surface. Unmodified carboxymethyl dextran without goat anti-mouse IgG in flow cell 1 and 3 is used as the reference surface. For kinetic analysis, rate equations derived from the 1:1 Langmuir binding model are fitted simultaneously to association and dissociation phases of all eight injections (using global fit analysis) with the use of Biaevaluation 4.0.1 software. Purified antibodies or DVD-Ig are diluted in HEPES-buffered saline for capture across goat anti-mouse IgG specific reaction surfaces. Antibodies or DVD-Ig to be captured as a ligand (25 μg/ml) are injected over reaction matrices at a flow rate of 5 μl/min. The association and dissociation rate constants, kₒₙ (M⁻¹s⁻) and koff(s⁻¹) are determined under a continuous flow rate of 25 μl/min. Rate constants are derived by making kinetic binding measurements at different antigen concentrations ranging from 10-200 nM. The equilibrium dissociation constant (M) of the reaction between antibodies or DVD-Igs and the target antigen is then calculated from the kinetic rate constants by the following formula: KD=koff/kₒₙ. Binding is recorded as a function of time and kinetic rate constants are calculated.
On the technique in general: In SPR one partner is held on a chip, and binding of the other changes the refractive index at the surface.

The target of experiment [4] is T1, Recombinant Human β-NGF. Nature of the experiment: Biacore SPR. Here is the method: as §1

One may read the Kd as the equilibrium constant for the complex coming apart. The koff is a measure of how fast the partners let go of each other. As a reminder, the kon is the rate constant with which the complex forms.

T2 sequence (P01375 77-233 limits assumed): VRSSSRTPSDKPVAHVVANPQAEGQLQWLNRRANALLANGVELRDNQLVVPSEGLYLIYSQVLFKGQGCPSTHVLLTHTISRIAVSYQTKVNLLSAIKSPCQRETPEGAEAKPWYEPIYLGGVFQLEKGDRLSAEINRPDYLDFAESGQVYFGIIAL
T1 sequence (P01138 122-241 limits assumed): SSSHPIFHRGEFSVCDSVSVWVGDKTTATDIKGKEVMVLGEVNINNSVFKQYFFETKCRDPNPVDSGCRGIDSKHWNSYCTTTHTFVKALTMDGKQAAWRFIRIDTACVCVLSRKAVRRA

B1: DVD1502 (bispecific antibody, human IgG1, kappa)
heavy: not shown
light: DIQMTQSPSSLSASVGDRVTITCRASQSISNNLNWYQQKPGKAPKLLIYYTSRFHSGVPSRFSGSGSGTDFTFTISSLQPEDIATYYCQQEHTLPYTFGQGTKLEIKRTVAAPDIVMTQSHKFMSTTVGDRVSITCKASQAVSSAVAWYQQKPGQSPKLLIYWASTRHTGVPDRFTGSGSVTDFTLTIHNLQAEDLALYYCQQHYSTPFTFGSGTKLEIKRTVAAPSVFIFPPSDEQLKSGTASVVCLLNNFYPREAKVQWKVDNALQSGNSQESVTEQDSKDSTYSLSSTLTLSKADYEKHKVYACEVTHQGLSSPVTKSFNRGEC
notes: DVD-Ig; linker set 3; also called DVD1502H; DVD1502L
Turning to B1, the “NGF Inhibition Assay EC50 (TF-1 cell proliferation)” value in the experiment with Recombinant Human β-NGF [1] is 0.028 nM. The “TNFα Neutralization Assay EC50 (L929 cells)” value in experiment [2] amounted to 0.46 nM. Further, in experiment [3], the Kd was found to be 0.3 nM, the koff amounted to 5.5e-05 s⁻¹ and the kon amounted to 180000 M⁻¹ s⁻¹. For the same molecule, in the experiment with Recombinant Human β-NGF [4], the Kd is less than 0.0004 nM, the koff was less than 1e-06 s⁻¹ and the on-rate (kon) was found to be 2.5e+06 M⁻¹ s⁻¹.

B2: DVD1520 (bispecific antibody, human IgG1, kappa)
heavy: not shown
light: DIQMTQSPSSLSASVGDRVTITCRASQSISNNLNWYQQKPGKAPKLLIYYTSRFHSGVPSRFSGSGSGTDFTFTISSLQPEDIATYYCQQEHTLPYTFGQGTKLEIKRTVAAPDIQMTQSPSSLSASVGDRVTITCRASQGIRIDLGWYQQKPGKAPKRLIYAASTLQSGVPSRFSGSGSGTEFIFTISSLQPEDFASYYCLQHKSYPLTFGGGTKVEIKRTVAAPSVFIFPPSDEQLKSGTASVVCLLNNFYPREAKVQWKVDNALQSGNSQESVTEQDSKDSTYSLSSTLTLSKADYEKHKVYACEVTHQGLSSPVTKSFNRGEC
notes: DVD-Ig; linker set 3; also called DVD1520H; DVD1520L
Turning to B2, the “NGF Inhibition Assay EC50 (TF-1 cell proliferation)” value in the experiment with Recombinant Human β-NGF [1] stood at 0.025 nM. Further, the “TNFα Neutralization Assay EC50 (L929 cells)” value in experiment [2] was 7.21 nM. Moreover, in experiment [3], the Kd is 0.0038 nM, the koff came out at 4.4e-06 s⁻¹ and the kon is 1.1e+06 M⁻¹ s⁻¹. In addition, in the experiment with Recombinant Human β-NGF [4], the Kd was determined as 0.0034 nM, the koff came to 9.3e-06 s⁻¹ and the kon amounted to 2.7e+06 M⁻¹ s⁻¹.
